In publication PMC10354078, “Conformational restriction shapes the inhibition of a multidrug efflux adaptor protein” (Nature Communications, 2023):

T1: AcrB in SMALP (styrene maleic acid lipid particle) nanodiscs (E. coli, UniProt P31224 1-1049)
T1 construct: AcrB, inner membrane RND transporter of the E. coli AcrAB-TolC pump; pET15b plasmid; embedded in native lipid SMALP nanodiscs; also called trimeric AcrB SMALPs; source: E. coli C43(DE3) ΔacrAB, extracted from membranes with 2.5% SMA 2000 into native nanodiscs, purified (nickel NTA)
T1 sequence: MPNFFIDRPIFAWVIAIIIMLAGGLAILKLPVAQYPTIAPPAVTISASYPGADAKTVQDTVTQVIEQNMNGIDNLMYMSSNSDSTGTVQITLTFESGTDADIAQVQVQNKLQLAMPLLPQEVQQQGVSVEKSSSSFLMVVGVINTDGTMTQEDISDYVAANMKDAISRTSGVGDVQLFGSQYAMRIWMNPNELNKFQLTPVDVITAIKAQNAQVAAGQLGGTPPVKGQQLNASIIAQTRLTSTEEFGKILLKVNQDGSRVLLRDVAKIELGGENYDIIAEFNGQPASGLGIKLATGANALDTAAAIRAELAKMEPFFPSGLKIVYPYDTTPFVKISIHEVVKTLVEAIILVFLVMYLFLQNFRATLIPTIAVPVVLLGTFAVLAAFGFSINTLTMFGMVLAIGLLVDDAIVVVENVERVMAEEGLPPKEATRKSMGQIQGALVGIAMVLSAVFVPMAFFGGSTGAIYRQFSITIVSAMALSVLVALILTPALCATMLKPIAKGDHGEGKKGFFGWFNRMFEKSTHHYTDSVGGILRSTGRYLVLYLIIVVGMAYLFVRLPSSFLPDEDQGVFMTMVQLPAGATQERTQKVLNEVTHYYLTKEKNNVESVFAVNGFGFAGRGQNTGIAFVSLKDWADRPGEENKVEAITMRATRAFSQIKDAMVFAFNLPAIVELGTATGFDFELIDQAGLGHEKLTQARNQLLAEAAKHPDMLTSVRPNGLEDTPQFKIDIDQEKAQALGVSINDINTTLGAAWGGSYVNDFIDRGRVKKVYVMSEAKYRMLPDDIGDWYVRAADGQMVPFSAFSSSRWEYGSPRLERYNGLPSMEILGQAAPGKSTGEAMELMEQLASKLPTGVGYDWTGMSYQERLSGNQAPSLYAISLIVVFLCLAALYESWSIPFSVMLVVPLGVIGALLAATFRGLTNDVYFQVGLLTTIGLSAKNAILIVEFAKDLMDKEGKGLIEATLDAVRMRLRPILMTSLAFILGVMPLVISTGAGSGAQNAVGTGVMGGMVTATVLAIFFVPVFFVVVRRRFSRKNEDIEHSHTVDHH


How the values were obtained:
[1] = target: the molecule itself; test: native MS; pH 6.0, 100 mM ammonium acetate; AcrA^L with 0.03% DDM (2x CMC); Synapt G2-Si or Q-Exactive UHMR
[2] = target: the molecule itself; test: native MS; pH 7.4, 100 mM ammonium acetate; AcrA^L with 0.03% DDM
[3] = target: T1, AcrB in SMALP (styrene maleic acid …); test: native gel or EMSA; SMA-PAGE (native PAGE for SMALPs): AcrA constructs mixed with AcrB in SMALP nanodiscs; Novex Tris-Glycine 4-20% gels, 25 mM Tris pH 8.8, 192 mM glycine, 150 V, 4 °C, Coomassie stain; settings: both partners purified

Row | Binder | stoichiometry N [1] | stoichiometry N [2] | stoichiometry N [3]
1 | AcrA^L (lipidated AcrA) (natural protein, lipidated at Cys25 (after cleavage of signal peptide 1-24), AcrA, periplasmic adaptor protein of E. coli; full length AcrA cloned from genomic DNA; signal peptide residues 1-24 is cleaved, the protein begins at lipidated Cys25; Cloned into pET28a with NcoI and XhoI; source: E. coli C43(DE3) ΔacrAB, solubilised from membranes with 1% DDM, purified (HiTrap, SEC) in 0.03% DDM) CDDKQAQQGGQQMPAVGVVTVKTEPLQITTELPGRTSAYRIAEVRPQVSGIILKRNFKEGSDIEAGVSLYQIDPATYQATYDSAKGDLAKAQAAANIAQLTVNRYQKLLGTQYISKQEYDQALADAQQANAAVTAAKAAVETARINLAYTKVTSPISGRIGKSNVTEGALVQNGQATALATVQQLDPIYVDVTQSSNDFLRLKQELANGTLKQENGKAKVSLITSDGIKFPQDGTLEFSDVTVDQTTGSITLRAIFPNPDHTLLPGMFVRARLEEGLNPNAILVPQQGVTRTPRGDATVLVVGADDKVETRPIVASQAIGDKWLVTEGLKAGDRVVISGLQKVRPGVQVKAQEVTADNNQQAASGAQPEQSKS | 2 | ≤ 5 | 
2 | AcrA^S (soluble AcrA lacking signal peptide and lipidation) (domain or fragment, AcrA of E. coli without signal peptide residues 1-24; Cys25 replaced by a starting methionine (Met25); not lipidated; pET28a construct; source: E. coli C43(DE3) ΔacrAB, cytosolic fraction, purified (HiTrap, SEC)) MDDKQAQQGGQQMPAVGVVTVKTEPLQITTELPGRTSAYRIAEVRPQVSGIILKRNFKEGSDIEAGVSLYQIDPATYQATYDSAKGDLAKAQAAANIAQLTVNRYQKLLGTQYISKQEYDQALADAQQANAAVTAAKAAVETARINLAYTKVTSPISGRIGKSNVTEGALVQNGQATALATVQQLDPIYVDVTQSSNDFLRLKQELANGTLKQENGKAKVSLITSDGIKFPQDGTLEFSDVTVDQTTGSITLRAIFPNPDHTLLPGMFVRARLEEGLNPNAILVPQQGVTRTPRGDATVLVVGADDKVETRPIVASQAIGDKWLVTEGLKAGDRVVISGLQKVRPGVQVKAQEVTADNNQQAASGAQPEQSKS |  |  | 1
